Experiment: Retention on affinity column grafted with glutathione (GSH) after thrombin cutting
Format: binding
Details: after cutting GST-NBF1 with thrombin; coelutes with GST
Procedure: The suspension was centrifuged at 17,000 rpm for 40 minutes, and at 4° C., on a JA20 rotor (Beckman). The supernatant was incubated with 5 ml of a glutathione support (G4B Pharmacia) at ambient temperature for 30 minutes. The column was filled. The fusion protein was eluted with a 10 mM glutathione, 50 mM Tris, pH 8, solution at a flow rate of 0.05 ml/min. The fractions absorbing at 280 nm were collected and applied in portions of 500 μl to an ion exchange column (MonoQ, Pharmacia). The column was eluted with a 150 mM solution of NaCl and a 42 kD protein was identified on an SDS-PAGE gel and then confirmed by mass spectroscopy. The production yields of soluble fusion protein are 5 mg/l of culture.
Following purification, the fusion protein sample was dialyzed against a buffer (150 mM NaCl, 2.5 mM CaCl2, 50 mM Tris/HC1) at pH=8. Human thrombin (T7009, Sigma) was added to give a final concentration of 5u per mg of fusion protein. The mixture was incubated at ambient temperature for 30 minutes. The products of the cutting reaction were characterized on an SDS-PAGE gel and a protein having a molecular weight of 18 kD (corresponding to the expected molecular weight of NBF1) was observed.
The GST-NBF1 fusion protein is efficiently recognized by an anti-NBF1 antibody (MATG 1061, distributed by Transgene). The affinity of this recombinant protein for ATP was verified. […]

B1: NBF1: Recombinant NBF1 domain of the CFTR protein (sequence R450-I586), 18 kD, released from GST fusion by thrombin (protein, UniProt P13569 450-586, looked up, fragment)
chain: RGQLLAVAGSTGAGKTSLLMVIMGELEPSEGKIKHSGRISFCSQFSWIMPGTIKENIIFGVSYDEYRYRSVIKACQLEEDISKFAEKDNIVLGEGGITLSGGQRARISLARAVYKDADLYLLDSPFGYLDVLTEKEI
  behaviour on column of immobilized GSH: retained on the GSH column

— patent publication US6635627B1, “Anti-cancer products for treating cystic fibrosis” (Centre National de la Recherche Scientifique (CNRS), priority 1997, dated 2003)
